According to IntAct's records for PubMed 18923430:

Molecular target: dnjc3_mouse Dnajc3 (UniProt Q91YW3)
Sequence (Q91YW3 whole entry): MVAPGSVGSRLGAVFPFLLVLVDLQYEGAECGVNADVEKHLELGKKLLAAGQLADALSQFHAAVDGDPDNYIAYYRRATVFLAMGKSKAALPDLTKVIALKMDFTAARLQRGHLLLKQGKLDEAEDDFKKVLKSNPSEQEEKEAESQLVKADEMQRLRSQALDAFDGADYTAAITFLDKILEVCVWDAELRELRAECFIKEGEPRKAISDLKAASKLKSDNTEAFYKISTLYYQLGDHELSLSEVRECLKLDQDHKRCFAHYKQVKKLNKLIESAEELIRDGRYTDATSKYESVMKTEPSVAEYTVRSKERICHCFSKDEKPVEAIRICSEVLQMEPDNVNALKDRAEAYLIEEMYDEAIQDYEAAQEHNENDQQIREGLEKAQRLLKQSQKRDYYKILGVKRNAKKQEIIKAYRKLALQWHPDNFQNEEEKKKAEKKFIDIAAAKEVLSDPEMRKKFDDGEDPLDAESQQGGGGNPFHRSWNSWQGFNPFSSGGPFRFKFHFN

“Endoplasmic reticulum chaperone BiP (Homo sapiens), P11021 E201G” was tested, and the “effect of a mutation on the interaction” value was “disrupting interaction”.
